# According to the supplement of paper PMC9112550, “Optimization of the antimicrobial peptide Bac7 by deep mutational scanning” (BMC Biology, 2022):
# Test system: Escherichia coli TOP10
# Assay: shrunken log2 fold change of peptide-encoding DNA abundance (4.5 h post-induction vs induction); higher = less antimicrobial activity (less host growth inhibition)
# Settings: time post-induction: 4.5 h; library: site-saturation at positions 5, 18, 19, 20
# 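Further: peptides expressed intracellularly from a pBAD plasmid library in pooled LB shake-flask culture, induced with 0.3% L-arabinose, DNA abundance read by NGS, three biological replicates, DESeq2 with apeglm shrinkage.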
row,Sequence,shrunken log2 fold change
1,RRIRPRPPRLPRPRPRPWDYPRP,-0.19
2,RRIRMRPPRLPRPRPRPDSIPRP,0.0402
3,RRIRIRPPRLPRPRPRPLGTPRP,-0.356
4,RRIRYRPPRLPRPRPRPSCFPRP,-0.361
5,RRIRGRPPRLPRPRPRPCIPPRP,-0.165
6,RRIRKRPPRLPRPRPRPSHTPRP,-0.0409
7,RRIRCRPPRLPRPRPRPPHRPRP,0.854
8,RRIRVRPPRLPRPRPRPNQRPRP,0.0593
9,RRIRPRPPRLPRPRPRPIWRPRP,0.583
10,RRIRWRPPRLPRPRPRPAMRPRP,1.1
11,RRIRYRPPRLPRPRPRPYIPPRP,-0.457
12,RRIRRRPPRLPRPRPRPNRKPRP,0.105
13,RRIRDRPPRLPRPRPRPILVPRP,0.0243
14,RRIRMRPPRLPRPRPRPDTIPRP,0.0143
15,RRIRVRPPRLPRPRPRPESNPRP,0.0327
16,RRIRWRPPRLPRPRPRPICYPRP,-0.214
17,RRIRGRPPRLPRPRPRPYFTPRP,-0.123
18,RRIRARPPRLPRPRPRPWWNPRP,-0.108
19,RRIRCRPPRLPRPRPRPQYWPRP,-0.312
20,RRIRVRPPRLPRPRPRPLKIPRP,-0.0769
21,RRIRLRPPRLPRPRPRPDISPRP,0.0207
22,RRIRNRPPRLPRPRPRPCAEPRP,-0.169
23,RRIRSRPPRLPRPRPRPGIVPRP,0.119
24,RRIRERPPRLPRPRPRPLTYPRP,-0.188
25,RRIRTRPPRLPRPRPRPRHCPRP,-0.0723

row,Sequence,shrunken log2 fold change
1,RRIRSRPPRLPRPRPRPGHRPRP,-0.326
2,RRIRVRPPRLPRPRPRPIWGPRP,0.0376
3,RRIRPRPPRLPRPRPRPRNLPRP,0.067
4,RRIRMRPPRLPRPRPRPGLAPRP,1.51
5,RRIRPRPPRLPRPRPRPHVRPRP,0.036
6,RRIRTRPPRLPRPRPRPACCPRP,0.263
7,RRIRDRPPRLPRPRPRPILFPRP,-0.185
8,RRIRHRPPRLPRPRPRPIWMPRP,-0.0859
9,RRIRIRPPRLPRPRPRPTNHPRP,-0.587
10,RRIRCRPPRLPRPRPRPWFTPRP,-0.879
11,RRIRPRPPRLPRPRPRPPKHPRP,0.499
12,RRIRDRPPRLPRPRPRPLNWPRP,0.0327
13,RRIRHRPPRLPRPRPRPKFCPRP,-0.132
14,RRIRYRPPRLPRPRPRPERYPRP,0.11
15,RRIRDRPPRLPRPRPRPQKCPRP,0.0207
16,RRIRKRPPRLPRPRPRPGCYPRP,0.144
17,RRIRGRPPRLPRPRPRPALGPRP,1.11
18,RRIRVRPPRLPRPRPRPFVRPRP,-0.0708
19,RRIRNRPPRLPRPRPRPFICPRP,-0.38
20,RRIRCRPPRLPRPRPRPSYNPRP,-0.816
21,RRIRPRPPRLPRPRPRPQLFPRP,0.0893
22,RRIRLRPPRLPRPRPRPATFPRP,-0.0149
23,RRIRLRPPRLPRPRPRPNGGPRP,-0.01
24,RRIRIRPPRLPRPRPRPMDWPRP,0.0118
25,RRIRGRPPRLPRPRPRPVFNPRP,0.155

row,Sequence,shrunken log2 fold change
1,RRIRYRPPRLPRPRPRPTSNPRP,-0.276
2,RRIRTRPPRLPRPRPRPMQVPRP,-0.21
3,RRIRCRPPRLPRPRPRPYDAPRP,-0.334
4,RRIRNRPPRLPRPRPRPFWGPRP,-0.157
5,RRIRIRPPRLPRPRPRPWFDPRP,-0.184
6,RRIRKRPPRLPRPRPRPHRAPRP,0.515
7,RRIRQRPPRLPRPRPRPISHPRP,-0.421
8,RRIRNRPPRLPRPRPRPRDCPRP,0.0442
9,RRIRRRPPRLPRPRPRPCVLPRP,-0.027
10,RRIRQRPPRLPRPRPRPKGTPRP,0.109
11,RRIRYRPPRLPRPRPRPLMKPRP,-0.179
12,RRIRSRPPRLPRPRPRPIPEPRP,0.208
13,RRIRIRPPRLPRPRPRPTNIPRP,-0.237
14,RRIRMRPPRLPRPRPRPWPNPRP,0.25
15,RRIRGRPPRLPRPRPRPHVCPRP,0.359
16,RRIRHRPPRLPRPRPRPLLGPRP,-0.107
17,RRIRMRPPRLPRPRPRPNCQPRP,0.356
18,RRIRYRPPRLPRPRPRPLVWPRP,0.00227
19,RRIRHRPPRLPRPRPRPAWGPRP,0.542
20,RRIRCRPPRLPRPRPRPWYNPRP,-1.45
21,RRIRYRPPRLPRPRPRPDKIPRP,-0.155
22,RRIRARPPRLPRPRPRPFFEPRP,0.423
23,RRIRGRPPRLPRPRPRPPMCPRP,0.525
24,RRIRRRPPRLPRPRPRPAVEPRP,-0.0125
25,RRIRVRPPRLPRPRPRPKGYPRP,-0.0404

row,Sequence,shrunken log2 fold change
1,RRIRKRPPRLPRPRPRPATKPRP,0.253
2,RRIRVRPPRLPRPRPRPQTFPRP,-0.122
3,RRIRYRPPRLPRPRPRPVAHPRP,-0.419
4,RRIRWRPPRLPRPRPRPHKYPRP,-0.652
5,RRIRYRPPRLPRPRPRPFMIPRP,-1.21
6,RRIRSRPPRLPRPRPRPHSDPRP,-0.0834
7,RRIRRRPPRLPRPRPRPRWWPRP,0.318
8,RRIRRRPPRLPRPRPRPQVVPRP,0.0705
9,RRIRNRPPRLPRPRPRPMNRPRP,-0.00285
10,RRIRARPPRLPRPRPRPSTNPRP,0.0112
11,RRIRKRPPRLPRPRPRPCNKPRP,0.0197
12,RRIRKRPPRLPRPRPRPQNNPRP,-0.417
13,RRIRPRPPRLPRPRPRPLQRPRP,0.395
14,RRIRMRPPRLPRPRPRPAHTPRP,0.709
15,RRIRGRPPRLPRPRPRPHNKPRP,-0.09
16,RRIRCRPPRLPRPRPRPHSNPRP,-0.625
17,RRIRNRPPRLPRPRPRPGCKPRP,-0.00214
18,RRIRWRPPRLPRPRPRPHAWPRP,0.0328
19,RRIRFRPPRLPRPRPRPFQQPRP,-0.268
20,RRIRDRPPRLPRPRPRPMCCPRP,0.0249
21,RRIRIRPPRLPRPRPRPERQPRP,0.0212
22,RRIRIRPPRLPRPRPRPKETPRP,-0.0675
23,RRIRTRPPRLPRPRPRPTNFPRP,-0.0921
24,RRIRTRPPRLPRPRPRPTDWPRP,0.218
25,RRIRERPPRLPRPRPRPRQCPRP,0.123

row,Sequence,shrunken log2 fold change
1,RRIRWRPPRLPRPRPRPDLSPRP,0.000407
2,RRIRCRPPRLPRPRPRPTHWPRP,0.546
3,RRIRARPPRLPRPRPRPQHLPRP,-0.0998
4,RRIRWRPPRLPRPRPRPEEFPRP,0.023
5,RRIRWRPPRLPRPRPRPIGYPRP,-0.0135
6,RRIRYRPPRLPRPRPRPKTHPRP,-0.661
7,RRIRQRPPRLPRPRPRPTKHPRP,-0.167
8,RRIRIRPPRLPRPRPRPYSIPRP,-0.129
9,RRIRSRPPRLPRPRPRPPARPRP,0.876
10,RRIRSRPPRLPRPRPRPLDGPRP,-0.365
11,RRIRDRPPRLPRPRPRPEKHPRP,0.377
12,RRIRARPPRLPRPRPRPGHQPRP,0.304
13,RRIRKRPPRLPRPRPRPSQPPRP,0.0235
14,RRIRERPPRLPRPRPRPSYRPRP,3.5
15,RRIRFRPPRLPRPRPRPCRGPRP,-0.106
16,RRIRPRPPRLPRPRPRPSRNPRP,0.0326
17,RRIRNRPPRLPRPRPRPMDNPRP,-0.105
18,RRIRLRPPRLPRPRPRPSCHPRP,-0.475
19,RRIRKRPPRLPRPRPRPVENPRP,0.198
20,RRIRNRPPRLPRPRPRPVITPRP,-0.662
21,RRIRHRPPRLPRPRPRPNSIPRP,-0.0178
22,RRIRPRPPRLPRPRPRPDGWPRP,0.354
23,RRIRCRPPRLPRPRPRPMFQPRP,-0.151
24,RRIRRRPPRLPRPRPRPIRSPRP,0.022
25,RRIRTRPPRLPRPRPRPWKHPRP,-0.529

row,Sequence,shrunken log2 fold change
1,RRIRQRPPRLPRPRPRPCPMPRP,-0.203
2,RRIRVRPPRLPRPRPRPNNFPRP,1.9
3,RRIRWRPPRLPRPRPRPCDFPRP,0.123
4,RRIRCRPPRLPRPRPRPMLEPRP,0.293
5,RRIRCRPPRLPRPRPRPHARPRP,0.204
6,RRIRIRPPRLPRPRPRPFENPRP,-0.00783
7,RRIRFRPPRLPRPRPRPSLQPRP,-0.31
8,RRIRTRPPRLPRPRPRPCNKPRP,-0.121
9,RRIRDRPPRLPRPRPRPCIYPRP,-0.0518
10,RRIRRRPPRLPRPRPRPRGNPRP,0.524
11,RRIRGRPPRLPRPRPRPDQVPRP,0.656
12,RRIRMRPPRLPRPRPRPQNYPRP,-0.377
13,RRIRARPPRLPRPRPRPERIPRP,0.155
14,RRIRFRPPRLPRPRPRPHYSPRP,-0.65
15,RRIRLRPPRLPRPRPRPDGPPRP,0.0394
16,RRIRHRPPRLPRPRPRPNIHPRP,-0.364
17,RRIRMRPPRLPRPRPRPYEYPRP,0.0662
18,RRIRKRPPRLPRPRPRPMQCPRP,-0.0161
19,RRIRARPPRLPRPRPRPGHYPRP,0.186
20,RRIRMRPPRLPRPRPRPCNFPRP,-0.415
21,RRIRWRPPRLPRPRPRPWFRPRP,-0.251
22,RRIRRRPPRLPRPRPRPMIYPRP,-0.305
23,RRIRERPPRLPRPRPRPIRKPRP,-0.108
24,RRIRNRPPRLPRPRPRPEDLPRP,-0.00079
25,RRIRMRPPRLPRPRPRPHVKPRP,-0.282
